Patent US20080249606A1

Target: endostatin incubated overnight with DXS500k (human) (UniProt P39060)
Assay: ELISA, protein/DXS500k mixture immobilized on Greiner Microlon plate, tPA in 10 mM εACA, detection with antibody 374b

Chain of endostatin incubated overnight with DXS500k (human) (P39060 1572-1754): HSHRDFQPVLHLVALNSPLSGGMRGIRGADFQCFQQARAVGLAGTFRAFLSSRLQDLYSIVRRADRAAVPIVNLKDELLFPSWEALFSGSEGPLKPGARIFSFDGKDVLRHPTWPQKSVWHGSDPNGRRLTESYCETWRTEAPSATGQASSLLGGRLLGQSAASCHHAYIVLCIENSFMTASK
Chain of tissue-type plasminogen activator (tPA, Actilyse, Boehringer-Ingelheim) (P00750 36-562 limits assumed): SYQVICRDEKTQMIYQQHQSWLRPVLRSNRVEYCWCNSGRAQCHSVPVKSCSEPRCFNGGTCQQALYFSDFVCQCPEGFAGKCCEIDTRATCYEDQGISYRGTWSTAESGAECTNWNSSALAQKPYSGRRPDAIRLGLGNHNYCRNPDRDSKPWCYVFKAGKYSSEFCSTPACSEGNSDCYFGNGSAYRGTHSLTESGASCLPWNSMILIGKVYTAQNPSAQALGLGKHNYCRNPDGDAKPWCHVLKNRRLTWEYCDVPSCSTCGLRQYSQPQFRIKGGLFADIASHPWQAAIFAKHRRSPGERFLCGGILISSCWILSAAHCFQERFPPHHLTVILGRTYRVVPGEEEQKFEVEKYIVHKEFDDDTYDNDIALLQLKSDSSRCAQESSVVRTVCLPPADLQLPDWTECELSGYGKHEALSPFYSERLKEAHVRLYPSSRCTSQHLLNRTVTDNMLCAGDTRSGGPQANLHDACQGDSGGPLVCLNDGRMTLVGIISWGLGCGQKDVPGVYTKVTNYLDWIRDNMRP

- factor of increase of tPA binding against the protein incubated with buffer only: 10.5 fold
Substance: tissue-type plasminogen activator (tPA, Actilyse, Boehringer-Ingelheim) (from UniProt P00750 36-562) (enzyme)
